This is an account of results in FireProtDB (doi:10.1016/s0022-2836(03)00043-3).

The conditions of this series: Homo sapiens; pH 8.5; 20 °C; Urea; CD; Tris 10 mM; reversible: yes; whole UniProt chain shown.

B1: Cyclin-dependent kinase inhibitor 2A wild type, P42771 (protein)
chain: MEPAAGSSMEPSADWLATAAARGRVEEVRALLEAGALPNAPNSYGRRPIQVMMMGSARVAELLLLHGAEPNCADPATLTRPVHDAAREGFLDTLVVLHRAGARLDVRDAWGRLPVDLAEELGHRDVARYLRAAAGGTRGSNHARIDAAEGPSDIPD
B1: the denaturant m value was 1.72 kcal/mol/M, the “denaturant midpoint (higher = more stable)” value is 2 M and the unfolding free energy was 3.34 kcal/mol.
